Laboratory results: the Human Domainome abundance scans (Beltran et al. 2025)
± gives the uncertainty stated by the source.

Test: abundance fitness (aPCA) (normalised: wild type 0, dead -1); higher = more abundant; growth selection in yeast, the domain comes from the species named
Settings: Homo sapiens

| Substance | abundance fitness |
| --- | --- |
| E3 ubiquitin-protein ligase NEDD4-like N213M, Q96PU5 | -0.441 ± 0.11 |
| E3 ubiquitin-protein ligase NEDD4-like P191F, Q96PU5 | -0.326 ± 0.12 |
| E3 ubiquitin-protein ligase NEDD4-like G198N, Q96PU5 | -0.095 ± 0.11 |
| E3 ubiquitin-protein ligase NEDD4-like E189A, Q96PU5 | -0.356 ± 0.065 |
| E3 ubiquitin-protein ligase NEDD4-like Q185N, Q96PU5 | 0.154 ± 0.12 |
| E3 ubiquitin-protein ligase NEDD4-like H214F, Q96PU5 | -0.07 ± 0.1 |
| E3 ubiquitin-protein ligase NEDD4-like S225W, Q96PU5 | -0.312 ± 0.068 |
| E3 ubiquitin-protein ligase NEDD4-like L226V, Q96PU5 | -0.11 ± 0.063 |
| E3 ubiquitin-protein ligase NEDD4-like K202R, Q96PU5 | -0.216 ± 0.062 |
| E3 ubiquitin-protein ligase NEDD4-like N205Q, Q96PU5 | -0.087 ± 0.069 |
| E3 ubiquitin-protein ligase NEDD4-like L206C, Q96PU5 | 0.003 ± 0.09 |
| E3 ubiquitin-protein ligase NEDD4-like N205I, Q96PU5 | -0.111 ± 0.098 |
| E3 ubiquitin-protein ligase NEDD4-like S184M, Q96PU5 | 0.884 ± 0.2 |
| E3 ubiquitin-protein ligase NEDD4-like N215P, Q96PU5 | -0.171 ± 0.074 |
| E3 ubiquitin-protein ligase NEDD4-like W199T, Q96PU5 | -0.176 ± 0.09 |
| E3 ubiquitin-protein ligase NEDD4-like N215G, Q96PU5 | -0.036 ± 0.05 |
| E3 ubiquitin-protein ligase NEDD4-like T209D, Q96PU5 | -0.311 ± 0.072 |
| E3 ubiquitin-protein ligase NEDD4-like P191G, Q96PU5 | -0.118 ± 0.054 |
| E3 ubiquitin-protein ligase NEDD4-like R217I, Q96PU5 | -0.267 ± 0.084 |
| E3 ubiquitin-protein ligase NEDD4-like S225V, Q96PU5 | -0.018 ± 0.076 |
| E3 ubiquitin-protein ligase NEDD4-like K202P, Q96PU5 | -0.814 ± 0.12 |
| E3 ubiquitin-protein ligase NEDD4-like P224H, Q96PU5 | -0.694 ± 0.17 |
| E3 ubiquitin-protein ligase NEDD4-like T219F, Q96PU5 | -0.577 ± 0.075 |

| Substance | abundance fitness |
| --- | --- |
| E3 ubiquitin-protein ligase NEDD4-like Q220S, Q96PU5 | 0.184 ± 0.065 |
| E3 ubiquitin-protein ligase NEDD4-like T218K, Q96PU5 | -0.06 ± 0.072 |
| E3 ubiquitin-protein ligase NEDD4-like L226W, Q96PU5 | -0.309 ± 0.069 |
| E3 ubiquitin-protein ligase NEDD4-like P193W, Q96PU5 | -0.359 ± 0.067 |
| E3 ubiquitin-protein ligase NEDD4-like H214K, Q96PU5 | 0.032 ± 0.081 |
| E3 ubiquitin-protein ligase NEDD4-like P224T, Q96PU5 | -0.828 ± 0.11 |
| E3 ubiquitin-protein ligase NEDD4-like R217H, Q96PU5 | -1 ± 0.062 |
| E3 ubiquitin-protein ligase NEDD4-like G207Q, Q96PU5 | -0.192 ± 0.069 |
| E3 ubiquitin-protein ligase NEDD4-like V203K, Q96PU5 | -0.064 ± 0.078 |
| E3 ubiquitin-protein ligase NEDD4-like L206D, Q96PU5 | 0.015 ± 0.095 |
| E3 ubiquitin-protein ligase NEDD4-like W199E, Q96PU5 | -0.275 ± 0.083 |
| E3 ubiquitin-protein ligase NEDD4-like H186Q, Q96PU5 | -0.511 ± 0.1 |
| E3 ubiquitin-protein ligase NEDD4-like R217P, Q96PU5 | -0.267 ± 0.085 |
| E3 ubiquitin-protein ligase NEDD4-like S184P, Q96PU5 | -0.682 ± 0.26 |
| E3 ubiquitin-protein ligase NEDD4-like W199V, Q96PU5 | -0.287 ± 0.07 |
| E3 ubiquitin-protein ligase NEDD4-like L226E, Q96PU5 | -0.203 ± 0.092 |
| E3 ubiquitin-protein ligase NEDD4-like S231P, Q96PU5 | -0.008 ± 0.08 |
| E3 ubiquitin-protein ligase NEDD4-like W221Q, Q96PU5 | 0.196 ± 0.1 |
| E3 ubiquitin-protein ligase NEDD4-like Y211N, Q96PU5 | -0.704 ± 0.16 |
| E3 ubiquitin-protein ligase NEDD4-like P224V, Q96PU5 | -1.01 ± 0.086 |
| E3 ubiquitin-protein ligase NEDD4-like P191H, Q96PU5 | -0.072 ± 0.073 |
| E3 ubiquitin-protein ligase NEDD4-like S225Q, Q96PU5 | 0.048 ± 0.063 |
| E3 ubiquitin-protein ligase NEDD4-like P196Q, Q96PU5 | -0.217 ± 0.073 |

| Substance | abundance fitness |
| --- | --- |
| E3 ubiquitin-protein ligase NEDD4-like W221Y, Q96PU5 | 0.193 ± 0.12 |
| E3 ubiquitin-protein ligase NEDD4-like P192R, Q96PU5 | 0.012 ± 0.055 |
| E3 ubiquitin-protein ligase NEDD4-like Y210A, Q96PU5 | -0.379 ± 0.067 |
| E3 ubiquitin-protein ligase NEDD4-like N205R, Q96PU5 | -0.013 ± 0.054 |
| E3 ubiquitin-protein ligase NEDD4-like S231D, Q96PU5 | -0.425 ± 0.11 |
| E3 ubiquitin-protein ligase NEDD4-like P191T, Q96PU5 | 0.125 ± 0.077 |
| E3 ubiquitin-protein ligase NEDD4-like E232I, Q96PU5 | -0.5 ± 0.31 |
| E3 ubiquitin-protein ligase NEDD4-like S225K, Q96PU5 | 0.019 ± 0.095 |
| E3 ubiquitin-protein ligase NEDD4-like W221L, Q96PU5 | -0.031 ± 0.054 |
| E3 ubiquitin-protein ligase NEDD4-like N216L, Q96PU5 | -0.001 ± 0.056 |
| E3 ubiquitin-protein ligase NEDD4-like H186A, Q96PU5 | -0.362 ± 0.069 |
| E3 ubiquitin-protein ligase NEDD4-like E200P, Q96PU5 | -1.29 ± 0.2 |
| E3 ubiquitin-protein ligase NEDD4-like Y211K, Q96PU5 | -0.691 ± 0.097 |
| E3 ubiquitin-protein ligase NEDD4-like Y210Q, Q96PU5 | -0.198 ± 0.069 |
| E3 ubiquitin-protein ligase NEDD4-like L226R, Q96PU5 | -0.007 ± 0.065 |
| E3 ubiquitin-protein ligase NEDD4-like E201L, Q96PU5 | -0.257 ± 0.061 |
| E3 ubiquitin-protein ligase NEDD4-like V212N, Q96PU5 | -0.47 ± 0.15 |
| E3 ubiquitin-protein ligase NEDD4-like P193T, Q96PU5 | -0.177 ± 0.075 |
| E3 ubiquitin-protein ligase NEDD4-like G207N, Q96PU5 | 0.042 ± 0.067 |
| E3 ubiquitin-protein ligase NEDD4-like P194V, Q96PU5 | -0.002 ± 0.058 |
| E3 ubiquitin-protein ligase NEDD4-like S184N, Q96PU5 | -0.554 ± 0.4 |
| E3 ubiquitin-protein ligase NEDD4-like G198F, Q96PU5 | -0.15 ± 0.086 |
